Measurements published in patent US20250084172A1 (23ANDME, published 2025).

T1: cynomolgus soluble ULBP2/6 (cULBP2/6) (cynomolgus, UniProt Q5VY80 28-217 (human entry), limits assumed)
T1 construct: also called cyno ULBP6; Cyno-cULBP2/6
T1 chain: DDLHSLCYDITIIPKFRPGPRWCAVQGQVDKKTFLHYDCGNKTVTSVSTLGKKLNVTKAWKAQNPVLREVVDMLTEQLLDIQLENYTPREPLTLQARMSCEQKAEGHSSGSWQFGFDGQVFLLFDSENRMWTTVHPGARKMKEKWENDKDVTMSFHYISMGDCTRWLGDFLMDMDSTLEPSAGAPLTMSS

T2: NKG2D on cells (NKG2D expressing cells, primed PBMCs) (UniProt P26718 1-216)
T2 construct: whole, on cells; also called cell surface NKG2D
T2 sequence (looked up): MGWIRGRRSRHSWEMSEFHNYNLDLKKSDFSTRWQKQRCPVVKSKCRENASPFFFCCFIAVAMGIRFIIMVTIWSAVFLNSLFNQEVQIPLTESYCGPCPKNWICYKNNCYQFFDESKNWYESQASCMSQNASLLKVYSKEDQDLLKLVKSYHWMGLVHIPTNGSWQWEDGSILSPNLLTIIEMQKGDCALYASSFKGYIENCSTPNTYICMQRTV

T3: cynomolgus soluble ULBP5 (cULBP5) (cynomolgus)
T3 construct: also called Cyno-cULBP5
T3 chain: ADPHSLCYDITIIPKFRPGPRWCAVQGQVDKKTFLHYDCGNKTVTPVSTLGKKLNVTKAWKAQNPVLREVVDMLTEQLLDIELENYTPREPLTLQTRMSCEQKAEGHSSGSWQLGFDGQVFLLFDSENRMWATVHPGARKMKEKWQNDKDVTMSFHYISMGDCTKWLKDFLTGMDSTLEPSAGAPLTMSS

T4: human soluble ULBP5 (hULBP5) (human, UniProt Q6H3X3 26-218)
T4 construct: also called sULBP5
T4 sequence: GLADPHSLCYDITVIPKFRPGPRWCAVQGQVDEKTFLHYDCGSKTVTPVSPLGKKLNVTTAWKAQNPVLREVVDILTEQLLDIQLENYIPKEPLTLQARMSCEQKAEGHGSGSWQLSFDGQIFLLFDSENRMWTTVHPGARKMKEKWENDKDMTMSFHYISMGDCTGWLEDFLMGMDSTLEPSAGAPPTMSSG

T5: human soluble ULBP2 (hULBP2) (human, UniProt Q9BZM5 26-216)
T5 construct: also called sULBP2
T5 sequence: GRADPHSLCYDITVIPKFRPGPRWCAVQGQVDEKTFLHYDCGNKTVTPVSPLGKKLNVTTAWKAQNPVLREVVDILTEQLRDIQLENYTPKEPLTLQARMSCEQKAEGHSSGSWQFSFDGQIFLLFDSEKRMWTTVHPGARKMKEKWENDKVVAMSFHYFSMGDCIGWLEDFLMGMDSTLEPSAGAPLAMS

B1: human soluble ULBP6 haplotype 02 (hULBP6_02) (ligand)
chain: RRDDPHSLCYDITVIPKFRPGPRWCAVQGQVDEKTFLHYDCGNKTVTPVSPLGKKLNVTTAWKAQNPVLREVVDILTEQLLDIQLENYTPKEPLTLQARMSCEQKAEGHSSGSWQFSIDGQTFLLFDSEKRMWTTVHPGARKMKEKWENDKDVAMSFHYISMGDCIGWLEDFLMGMDSTLEPSAGAPLAMSSG
notes: also called sULBP6_02
B2: human soluble ULBP6 haplotype 01 (hULBP6_01) (ligand)
chain: GRDDPHSLCYDITVIPKFRPGPRWCAVQGQVDEKTFLHYDCGNKTVTPVSPLGKKLNVTTAWKAQNPVLREVVDILTEQLRDIQLENYTPKEPLTLQARMSCEQKAEGHSSGSWQFSIDGQIFLLFDSEKRMWTTVHPGARKMKEKWENDKDVAMSFHYISMGDCIGWLEDFLMGMDSTLEPSAGAPLAMSSG
notes: also called sULBP6_01

What was measured:
[1] = target: T1, cynomolgus soluble ULBP2/6 (cULBP2/6); assay: BLI (OCTET), mouse antibody captured from hybridoma supernatant on AMC biosensor, 300 nM cULBP2/6
[2] = target: T2, NKG2D on cells (NKG2D expressing cells, …); assay: competition with anti-NKG2D mAb on NKG2D expressing cells (data not shown)
[3] = target: hNKG2D-Fc (human NKG2D 78-216 with C-terminal long huFc-Flag tag) (human); assay: SPR (BIACORE 8K, 37 C); hNKG2D-Fc captured on Protein A, soluble ligand injected
[4] = target: B1; assay: SPR (BIACORE);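 also: soluble human and cynomolgus NKG2D ligands injected as analytes in 3-fold dilution series spanning 0.01 to 50 nM at 37 °C, reference-subtracted sensorgrams fitted to a 1:1 Langmuir model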
[5] = target: T1, cynomolgus soluble ULBP2/6 (cULBP2/6); assay: SPR (BIACORE);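 also: soluble human and cynomolgus NKG2D ligands injected as analytes in 3-fold dilution series spanning 0.01 to 50 nM at 37 °C, reference-subtracted sensorgrams fitted to a 1:1 Langmuir model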
[6] = target: T3, cynomolgus soluble ULBP5 (cULBP5); assay: SPR (BIACORE);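 also: soluble human and cynomolgus NKG2D ligands injected as analytes in 3-fold dilution series spanning 0.01 to 50 nM at 37 °C, reference-subtracted sensorgrams fitted to a 1:1 Langmuir model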
[7] = target: B2; assay: SPR (BIACORE);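 also: soluble human and cynomolgus NKG2D ligands injected as analytes in 3-fold dilution series spanning 0.01 to 50 nM at 37 °C, reference-subtracted sensorgrams fitted to a 1:1 Langmuir model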
[8] = target: T4, human soluble ULBP5 (hULBP5); assay: SPR (BIACORE)
[9] = target: T5, human soluble ULBP2 (hULBP2); assay: SPR (BIACORE)
[10] = target: B1; assay: cell-based or functional assay
[11] = target: B2; assay: blocking ELISA; hNKG2D coated, antibody titrated with biotinylated hULBP6_01
[12] = target: B1; assay: blocking ELISA; hNKG2D coated, antibody titrated with biotinylated hULBP6_02
[13] = target: B2; assay: blocking ELISA; hNKG2D coated, antibody titrated with biotinylated hULBP6_01; hNKG2D-hULBP6_01 interaction; value of the running text
[14] = target: B1; assay: blocking ELISA; hNKG2D coated, antibody titrated with biotinylated hULBP6_02; hNKG2D-hULBP6_02 interaction; value of the running text

hNKG2D-Fc (human NKG2D 78-216 with C-terminal long huFc-Flag tag) (human), sequence (chain, as listed by the source limits assumed): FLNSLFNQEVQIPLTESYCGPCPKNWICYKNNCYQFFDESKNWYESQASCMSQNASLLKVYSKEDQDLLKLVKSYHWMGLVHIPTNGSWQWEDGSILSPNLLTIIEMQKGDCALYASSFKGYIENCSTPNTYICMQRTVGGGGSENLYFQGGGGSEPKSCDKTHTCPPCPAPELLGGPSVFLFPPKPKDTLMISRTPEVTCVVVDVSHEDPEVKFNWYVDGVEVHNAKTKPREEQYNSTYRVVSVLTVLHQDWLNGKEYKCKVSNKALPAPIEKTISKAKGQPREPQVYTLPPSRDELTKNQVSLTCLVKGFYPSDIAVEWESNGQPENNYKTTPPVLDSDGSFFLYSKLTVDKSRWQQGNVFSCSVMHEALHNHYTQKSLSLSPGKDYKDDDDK

binding result [1] | binding result [2] | Kd [3] [nM] | Kd [4] [nM] | Kd [5] [nM] | Kd [6] [nM] | Kd [7] [nM] | Kd [8] [nM] | Kd [9] [nM] | EC50 (read off the curve); NKG2D MFI on primed PBMCs of donor 1307 with 50 nM sULBP6_02 [10] [nM] | IC50 [11] [nM] | IC50 [12] [nM] | IC50 [13] [nM] | IC50 [14] [nM] | Binder
binds |  |  |  |  |  |  |  |  |  |  |  |  |  | 7B3 (mouse hybridoma clone) (antibody, V domains shown, Tested as hybridoma culture supernatant; also called mAb 7B3) VH: DVQLVESGGGLVKPGGSRKLSCAASGFTFSTYGFHWVRQVPEKGLEWVAYISSNSGTIDYADTVKGRFTISRDNAKNTLFLQMTSLRSEDTAMYYCARQGYGFDNWGQGTTLTVSS VL: EILLTQSPAIIAASPGEKVTITCSASSRVSYMNWYQQKPGSSPKIWVYGISNLASGVPARFSGSGSGTSFSFTINSMEAEDVATYYCQQRSSHPLTFGAGTKLELK
 | binds | 4.8 |  |  |  |  |  |  |  |  |  |  |  | B1
 | binds | 41 |  |  |  |  |  |  |  |  |  |  |  | B2
 |  |  | 0.28 | 2.06 | 23.1 | 0.27 | 1.76 | 0.5 | ~20 | 5.06 | 0.035 | 4.32 | 1.59 | Humanized 8E11 (h8E11) (E-) (antibody, human IgG1, kappa, N297G, V domains shown, hIgG1 with N297G (effector negative)) VH: EVQLVESGGGLVQPGGSLRLSCAASGFTFRTYGMHWVRQAPGKGLEWVAYISSGSGTIDYADTVKGRFTISRDNAKNSLYLQMNSLRAEDTAVYYCTRQTGAMDYWGQGTLVTVSS VL: EIVLTQSPATLSLSPGERATLSCSASSSVSYMNWYQQKPGQSPRLWIYGISNLASGVPARFSGSGSGTDFTLTISSLEPEDFAVYYCQQRSSHPLTFGGGTKVEIKR
binds |  |  |  |  |  |  |  |  |  |  |  |  |  | 8E11 (mouse hybridoma clone) (antibody, V domains shown, Tested as hybridoma culture supernatant) VH: DVQLVESGGGLVQPGGSRKLSCAASGFTFRTYGMHWVRQAPEKGLEWVAYISSGSGTIDYADTVKGRFTISRDNAKNTLFLQMTSLRSEDTAMYYCTRQTGAMDYWGQGTSVTVSS VL: EILLTQSPAIIAASPGEKVTITCSASSSVSYMNWYQQKPGSSPKLWIYGISNLASGVPARFSGSGSGTSFSFTINSMEAEDVATYYCQQRSSHPLTFGAGTKLELK
 |  |  | 0.2 | 0.48 | 7.67 | 0.22 | 2.39 | 0.54 | ~20 | 4.48 | 0.028 | 4.47 | 1.52 | Humanized 7B3 (h7B3) (E-) (antibody, human IgG1, kappa, N297G, V domains shown, hIgG1 with N297G (effector negative)) VH: EVQLVESGGGLVQPGGSLRLSCAASGFTFSTYGFHWVRQAPGKGLEWVAYISSNSGTIDYADTVKGRFTISRDNAKNSLYLQMNSLRAEDTAVYYCARQGYGFDNWGQGTTVTVSS VL: DIQLTQSPSSLSASVGDRVTITCSASSRVSYMNWYQQKPGKSPKIWVYGISNLASGVPSRFSGSGSGTDFTFTISSLQPEDIATYYCQQRSSHPLTFGGGTKVEIKR
